Measured values: PMC11817110

Target: T1, recombinant human LAIR1 (leukocyte-associated immunoglobulin-like receptor 1) (human), Q6GTX8
T1 chain: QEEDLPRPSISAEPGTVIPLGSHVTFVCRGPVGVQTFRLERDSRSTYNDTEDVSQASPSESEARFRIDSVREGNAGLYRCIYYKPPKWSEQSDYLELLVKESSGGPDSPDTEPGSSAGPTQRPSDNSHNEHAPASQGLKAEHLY

B1: polymerized type I collagen (protein)
chain 1: not shown
chain 2: GPMGLMGPRGPPGAVGAPGPQGFQGPAGEPGEPGQTGPAGARGPPGPPGKAGEDGHPGKPGRPGERGVVGPQGARGFPGTPGLPGFKGIRGHNGLDGLKGQPGAPGVKGEPGAPGENGTPGQTGARGLPGERGRVGAPGPAGARGNDGSVGPVGPAGPIGSAGPPGFPGAPGPKGELGPVGNPGPAGPAGPRGEVGLPGVSGPVGPPGNPGANGLPGAKGAAGLPGVAGAPGLPGPRGIPGPAGAAGATGARGLVGEPGPAGSKGESGNKGEPGAAGPQGPPGPSGEEGKRGPNGEVGSAGPPGPPGLRGNPGSRGLPGADGRAGVMGPPGSRGPTGPAGVRGPNGDSGRPGEPGLMGPRGFPGSPGNVGPAGKEGPAGLPGIDGRPGPIGPAGARGEPGNIGFPGPKGPTGDPGKNGEKGHAGLAGARGAPGPDGNNGAQGPPGPQGVQGGKGEQGPAGPPGFQGLPGPAGTAGEVGKPGERGIPGEFGLPGPAGPRGERGPPGESGAAGPAGPIGSRGPSGPPGPDGNKGEPGVLGAPGTAGPSGPSGLPGERGAAGIPGGKGEKGETGLRGDVGSPGRDGARGAPGAVGAPGPAGANGDRGEAGPAGPAGPAGPRGSPGERGEVGPAGPNGFAGPAGAAGQPGAKGERGTKGPKGENGPVGPTGPVGAAGPAGPNGPPGPAGSRGDGGPPGATGFPGAAGRIGPPGPSGISGPPGPPGPAGKEGLRGPRGDQGPVGRTGETGASGPPGFAGEKGPSGEPGTAGPPGTPGPQGILGAPGFLGLPGSRGERGLPGVAGSVGEPGPLGIAGPPGARGPPGAVGNPGVNGAPGEAGRDGNPGSDGPPGRDGQAGHKGERGYPGNPGPAGAAGAPGPQGAVGPAGKHGNRGEPGPAGSVGPAGAVGPRGPSGPQGIRGEKGEPGDKGPRGLPGLKGHNGLQGLPGLAGHHGDQGAPGPVGPAGPRGPAGPSGPAGKDGRTGQPGAVGPAGIRGSQGSQGPAGPPGPPGPPGPPGPS
modifications: here or on the partner: covalent bond between the protein and the PVP moiety; γ-irradiated | covalent bond between the protein and the PVP moiety; γ-irradiated
  percentage of CD14+/CD16+/CD163+/IL-10-expressing cells (M2 phenotype) in M1 cultures without vs. with 10% PTIC, flow cytometry: 19.8%
  percentage of CD16+/CD36+/CD86+/IL-1β-expressing cells (M1 phenotype) in M1 cultures without vs. with 10% PTIC, flow cytometry: 1.5%
